From patent publication US20190328899A1 (HEIDELBERG PHARMA RESEARCH, published 2019) come the findings set out here.

Assay [1] deals with B-Cell maturation antigen (BCMA) on BCMA-expressing multiple myeloma cell lines (human) (UniProt Q02223). The assay can be described thus: cell-based or functional assay.
Assay [2] concerns the target T1, B-Cell maturation antigen (BCMA) on BCMA-expressing multiple myeloma cell lines (human, UniProt Q02223 1-184).
T1 sequence (looked up): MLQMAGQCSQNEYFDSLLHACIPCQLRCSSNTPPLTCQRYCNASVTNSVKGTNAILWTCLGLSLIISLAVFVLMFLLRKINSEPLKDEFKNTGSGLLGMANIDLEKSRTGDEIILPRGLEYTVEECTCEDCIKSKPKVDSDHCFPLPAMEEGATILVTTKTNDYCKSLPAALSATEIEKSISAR
The assay can be described thus: cell-based or functional assay.

Assay [3] concerns the target T1, B-Cell maturation antigen (BCMA) on …. The assay can be described thus: flow cytometry-binding assay on MM.1S Luc and NCI-H929 cells.
The target is the same in assay [4]. The assay can be described thus: cell-based or functional assay. The source holds these as a separate data set.

In assay [1], “monomethyl auristatin F derivative J22.9-ISY-MMAF (antibody)” showed a cytotoxic potential EC50, KMS-11 cells, 96 h of 0.626 nM and a cytotoxic potential EC50, MM.1S Luc cells, 96 h of 0.481 nM.

B1: J22.9-ISY-D265C-30.1699 (antibody, V domains shown)
VH: EVQLVESGGGLVQPGGSLRLSCAASGFTFSRYWISWVRQAPGKGLVWVGEINPSSSTINYAPSLKDKFTISRDNAKNTLYLQMNSLRAEDTAVYYCASLYYDYGDAYDYWGQGTLVTVSS
VL: EIVMTQSPATLSVSPGERATLSCKASQSVESNVAWYQQKPGQAPRALIYSASLRFSGIPARFSGSGSGTEFTLTISSLQSEDFAVYYCQQYNNYPLTFGAGTKLELKR
modifications: alpha-amanitin-linker HDP 30.1699 (cathepsin B cleavable linker, maleimide) on the engineered Cys 265
For the molecule B1, in assay [2], the “cytotoxicity EC50 [M], MM.1S Luc cells, 96 h” value was determined as 6.5e-11 M; the “cytotoxicity EC50 [M], MM.1S cells, 96 h” value was determined as 1.7e-10 M; the “cytotoxicity EC50 [M], NCI-H929 cells, 96 h” value came to 7e-11 M; the “cytotoxicity EC50 [M], OPM-2 cells, 96 h” value was found to be 7.9e-09 M. Also, the “cytotoxicity EC50 [M], U266B1 cells, 96 h” value in assay [2] is 7.3e-11 M.

B2: Thiomab antibody J22.9-ISY-D265C (antibody, human IgG1, kappa, V domains shown)
VH: EVQLVESGGGLVQPGGSLRLSCAASGFTFSRYWISWVRQAPGKGLVWVGEINPSSSTINYAPSLKDKFTISRDNAKNTLYLQMNSLRAEDTAVYYCASLYYDYGDAYDYWGQGTLVTVSS
VL: EIVMTQSPATLSVSPGERATLSCKASQSVESNVAWYQQKPGQAPRALIYSASLRFSGIPARFSGSGSGTEFTLTISSLQSEDFAVYYCQQYNNYPLTFGAGTKLELKR
notes: Unconjugated antibody; also called thiomab J22.9-ISY-D265C
For the molecule B2, the binding result in assay [3] was “binds”.

B3: amanitin-conjugate J22.9-ISY-D265C-30.2115 (antibody, V domains shown)
VH: EVQLVESGGGLVQPGGSLRLSCAASGFTFSRYWISWVRQAPGKGLVWVGEINPSSSTINYAPSLKDKFTISRDNAKNTLYLQMNSLRAEDTAVYYCASLYYDYGDAYDYWGQGTLVTVSS
VL: EIVMTQSPATLSVSPGERATLSCKASQSVESNVAWYQQKPGQAPRALIYSASLRFSGIPARFSGSGSGTEFTLTISSLQSEDFAVYYCQQYNNYPLTFGAGTKLELKR
modifications: amatoxin-linker HDP 30.2115 (cathepsin B cleavable linker, maleimide) on the engineered Cys 265
Regarding B3, in assay [4], the “cytotoxic potential EC50, KMS-11 cells, 96 h” value stood at 1.72 nM and the “cytotoxic potential EC50, MM.1S Luc cells, 96 h” value came to 0.557 nM. For the same molecule, in assay [2], the “cytotoxicity EC50 [M], MM.1S Luc cells, 96 h” value was 2.3e-10 M; the “cytotoxicity EC50 [M], MM.1S cells, 96 h” value is 2.9e-10 M; the “cytotoxicity EC50 [M], NCI-H929 cells, 96 h” value was 9.7e-11 M; the “cytotoxicity EC50 [M], OPM-2 cells, 96 h” value is 1.4e-07 M. The “cytotoxicity EC50 [M], U266B1 cells, 96 h” value in assay [2] turned out to be 1.4e-10 M.
